For this experiment, the target named is single chain C1q fusion polypeptide according to formula I (TAG-X1-C1qA-X2-C1qB-X3-C1qC-X4) (human). Description: C1q affinity chromatography, immobilised fusion polypeptide, linear NaCl gradient in 20 mM HEPES pH 7.4.
Chain of single chain C1q fusion polypeptide according to formula I (TAG-X1-C1qA-X2-C1qB-X3-C1qC-X4) (human) (main, as listed by the source): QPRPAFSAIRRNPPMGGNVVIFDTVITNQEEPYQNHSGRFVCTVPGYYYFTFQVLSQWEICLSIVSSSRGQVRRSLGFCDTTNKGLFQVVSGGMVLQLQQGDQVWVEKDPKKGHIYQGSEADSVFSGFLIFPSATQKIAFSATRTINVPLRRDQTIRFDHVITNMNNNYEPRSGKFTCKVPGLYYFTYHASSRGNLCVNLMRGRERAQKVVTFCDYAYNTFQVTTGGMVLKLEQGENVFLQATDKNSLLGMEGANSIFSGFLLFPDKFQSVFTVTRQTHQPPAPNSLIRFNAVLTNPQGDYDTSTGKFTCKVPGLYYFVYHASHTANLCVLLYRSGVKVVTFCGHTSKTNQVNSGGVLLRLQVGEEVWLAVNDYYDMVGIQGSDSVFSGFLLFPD

Turning to Briakinumab (antibody), the retention time was 30.7 min. In turn, Ustekinumab (antibody) came in with a retention time of 39.1 min.

For the origin of these results see patent publication US20230331796A1.
